Experimental data from the DeepSol protein solubility set.

Experiment: soluble on expression in E. coli; label from the status in PepcDB or PDB records

Row | Sequence | soluble on expression in E. coli
1 | MSRIGRIPVAIPKGVDVKLGDNNTLTVKGQKGTLTKQFHKDMIIKVEGDKIIVQRPSDEKKHKALHGLTRTLINNMVIGVTQGYEKALEINGVGYRAQKQGKKLILTLGYSHPVEMEEPQGITVEVPAPNKIVVKGADKQAVGEFAAKIRSKREPEVYKGKGIKYEDEVIRRKEGKAGGKGKK | not soluble
2 | MSRKFPSFIVDAFTTKSFAGNPAAVCLIPEVFKDQEYLKIAAEFNLSETAFPVPIGSTDFKTCSQFSLRWFTPKTEVPLCGHATLATSHVLFNEVGNVNKEIKFDTQSGVLIAKRDEKGNVEMNFPEYDLASVKFNDTPNPLQGIFSEFEAPSFLFEVIKCVVPTEMIIESVVYSSKSRKLIVIVDPETTKFELEAVRIDCSKMLEIHDGSFVRGLAISLRPSNPMAQGFVDSSDEPYDYACRYFAPWVGIDEDPATGSAQCVMGPFWSKMLGKNELYAFQAFPTRGAQFRIRLQDDRVILNGPSVTVLRGELALN | not soluble
3 | MSRKKFMESVGATCSNWNWSWSFVNHEERFVVFGHWDVHKDGLIFDESWKGPGRKQSLEHISLIQNNGYRLKTFPMQYDQTETGTAKIKSFDWILEEKHLAGVDGLWYALNYSESVDITSIEEVVHPETYIEGATKEISVNAYERNPDARAKCILHYGCKCYVCKFDFQEVYGDIGKGFIHVHHEVSLAEIKKEYSVDPIKDLKPLCPNCHGIIHRTHPPISVDSLINLLRSRNLEHHHHHH | soluble
4 | MSRKYFYFDYDYYGMSFCEEEITTEPEEKVAYTSNSGGFADEVTGIPKEGHQSSIGEHSCVMPNTQDTGREEPEETSKVAETSEQSLFRIPRKAYRFTPGQLWELQAVFVENQYPDALKRKELAGLLNVDEQKIKDWFNNKRAKYRKIQREILGGKNITPTQEELRMKTLVESKKIIIFQEQEGDGLFWEHQNIDTQNSPLSLLFS | soluble
5 | MSRMIFLFLIPVVTSCIPTQQIEMPCPTDWEKFERPSGPWCVKLFVGLYLQGNRNEASARCAAEGAVLSGVQNQAELNAMTRQFTKLRYGYFWVGAMRKTSCLMSQLTATCTALNSFEWTDGSTTGTDGFIWKTGDPNNYLYNLYE | not soluble
6 | MSRNHFNELSPCEALIMKLIWEAPQDIPVQELIDQLRDDYGKEYARTTVVTFVGKLKDKRFVDTYRKGKSAFIHPLRSEEEYRRQLLKEEADFWFNGKAVDMVASICESQKLEDDEIKRIKKILNGLNK | not soluble
7 | MSRQTEIVRRMVSAFNTGRTDDVDEYIHPDYLNPATLEHGIHTGPKAFAQLVGWVRATFSEEARLEEVRIEERGPWVKAYLVLYGRHVGRLVGMPPTDRRFSGEQVHLMRIVDGKIRDHRDWPDFQGTLRQLGDPWPDDEGWRP | soluble
8 | MSRSQLTILTNICLIEDLETQRVVMQYRAPENNRWSGYAFPGGHVENDEAFAESVIREIYEETGLTIQNPQLVGIKNWPLDTGGRYIVICYKATEFSGTLQSSEEGEVSWVQKDQIPNLNLAYDMLPLMEMMEAPDKSEFFYPRRTEDDWEKKIF | soluble
9 | MSRTKDQAAAVLPTLLSALRLPSISRNWKHLTDTADRDGWPAANLLACLLEIEMAERASRRIQRHREQSGLPAGKTFATFDFDFPSGIRKPHLLSLATGEGWIESGGNILIFGQSGTGKTHVIAAIGHALIDAGRRVLFSTTTEMVQKLQAARRELSLPSMLDKLDKYDLIVLDSCAVRRDVESPSLGATFARRVARATQHKAAALEHHHHHH | not soluble
10 | MSRVAPRDSAAQAASAVAESVRYQGRKASRQGSEQRRQAILDAAMRLIVRDGVRAVRHRAVAAEAQVPLSATTYYFKDIDDLITDTFALFVERNAEALSAFWSSVEGDLQEMAAVLADDPGARGSLVERIVELAVQYVQVQLTERREHLLAEQAFRQEALLNPRLRELADAHQRILSLGAVHFFQVLGSGQPEQDAKVLTSIILQMEYQGLVDGVEQLAVDEMRAILRRYLNLVMGL | soluble
11 | MSRVITHGQVKRVSETNAYAVPVESLTFPTLQPIGPLPPAGTTGVLITQRVPNTPYTPAPPPPPPVPANQTIIYEDGNNNNTIYMRVVSVVGPAKYNIEVL | not soluble
12 | MSRVKLGHHYYYIVTPQDLRDGKYKGKNIVIEGEIKDKPIIEFLPMELPSYRTIFRVSGFKVEFSGTPNVRMGEKVKVYGVFVGDGIIARAIETEGAIYITEE | soluble
13 | MSSASGLRRGHPAGGEENMTETDAFYKREMFDPAEKYKMDHRRRGIALIFNHERFFWHLTLPERRGTCADRDNLTRRFSDLGFEVKCFNDLKAEELLLKIHEVSTVSHADADCFVCVFLSHGEGNHIYAYDAKIEIQTLTGLFKGDKCHSLVGKPKIFIIQACRGNQHDVPVIPLDVVDNQTEKLDTNITEVDAASVYTLPAGADFLMCYSVAEGYYSHRETVNGSWYIQDLCEMLGKYGSSLEFTELLTLVNRKVSQRRVDFCKDPSAIGKKQVPCFASMLTKKLHFFPKSN | soluble
14 | MSSDALPLLSIRGVGKTYAQPVLAEIDLQLFGGEVLALTGENGAGKSTLSKIVGGLERPGAGSLELLGRPYAPASRREAEALGVRMVMQELNLLPTLSVAENLFLHDLPRRAGWIDRRRLRAAAREAMAQVGLEAIDPDTLVGDLGIGHQQMVEIARNLIGDCRLLILDEPTAMLTAREVDMLFEQVERLRERGVAIVYISHRLEELARISQRIAVLRDGRLVCVEPIERYDADQLVTLMVGRDLGERFDLGPRQTGAPLLRVERLSRRGKVHEVSFEVRAGEIFGISGLIGSGRTELLRLIYGADRADGGQVLLGDPPQRLSLRSPADSVRQGVALITEDRKGEGLLLDQSISANLALGNLPALARHGVIDRRREEALARRQVEALRVRCADTAQAVGELSGGNQQKVVIGRWLERDCQVLLFDEPTRGIDVGAKFDIYALLAELTRRGKALVVVSSDLRELMLICDRIGVLSAGRMVDTFERDAWTQDALLAAAFAGYK | not soluble
15 | MSSDLYANAVLYSEISQRNPELVSKMFNEATRKKLDAFLKDNEAPKLKDIVTDNVFKKRKRIASSSGNEPPVKKMAAKDSSDSDSSDDGAVKKNGVQKPVNVAAKKSATPVQKKAESSSSSDSDAPAKKLTPVKKPAQTPAQKKAASSSDSDSDDEPPKKAPAVTTKVAPKPMAKKQDTSDSDSDSEDSDDGKSKKANPVKVTPVANVLQKVVAKKAASSSSDSSDDEKKPAAKPTPAKPTPKPVVKKAESSSDSSDDEKKPVAKPAPAKATPKPAAKKADSSSDSSDDEAPAKKTPAKAAPKPVAKKAESSSDSSDDEKKPAAKPTPAKATPKPVAKKAESSSDSSDDEKKPVAKPAPAKATPKPVAKKAESSSDSSDDEKKPAAKPTPAKATPKPVAKKAESSSDSSDDEKKPVAKPTSAKATPKPAAKKADSSSDSSDDEAPAKKTPAKAAPKPASKKAESSSDSSDDEKPAAKSTPAKITPKPTAKKVASSSSDSSDDEKKPAAKPTPANATPKPVAKKAESSSDSSDDEKKPVAKPTSAKATPKPAAKKADLSSDFSDDEAPAKKTPAKAAPKPASKKAESSSDSSDDEKPAAKSTPAKTTPKPTAKKAASSSSDSSDDEKKPVAKPTSAKATPKPAAKKADSSSDSSDDEAPAKKTPVKPTPVKIVAKKVDSSSDSSDDEKKPTKATPVKVTPKSVTKKAAASSSDSSDDEKKPVVKQTPNVVPKKEKAASSSDDSSDDEKKPTAKPTPKATPKQSAKKADSSDDSSDDEAPAKKTPAKSTPAKTAVKKEASSSSDDSSDDEKTKKKSATTPAKSTPKTALKKAESSDSSDDDEDLPKPSKAVTPRPQRADSEESAETEESSSRTPALKAKPLATSTEKAVYENRKRKSSPFRRVQMTKDSVSEKFRNNQHDSHFDQWGQRANESLGKVVGKAFRHEKTKKKKGSYGGGPINQSINSIKFSDSDD | soluble
16 | MSSDNLVENIIAEVLGKVGDLKTPSAASQPGISQQEPAIPRKLCGLTEFVGTATGDSIGLVIANVDSALLDAMHLEKKYRSIGILGARTGAGPQIMAADEAVKATNTEVVAIELARDTKGGAGHGSLVLFGGQDVSDVKRAVEVALGELERTFGDIYANAAGHVELQYTARASYALEKAFGAPLGRACGVIVGAPAAIGVLMADTAIKSANVDVVAYNSPAKGTSFTNEVILIVSGDSGAVRQAVRSARDVGLTLLETMGGKAPSATTPYI | not soluble
17 | MSSDRSGAAAKASAGQCSSDRPLAVAADPKQYSMALCPDTPSYSLCGRLKSEWDKQSAAASPGPAAYDVPGYFDTLDPQQQQRHLWSGPVPGVHLGIRTVLPESREKAGVPGPGAYQLVRFGDELPRAREPLITRSSRRGRGAAADTPGPGAYDDPTSIAYRADQVRRKRLFTQCSTFGGRWCRREFHTAGPGPAAYNTLVATKLLEKNQRHAPRLVRRQPPLDRQSVAEAAAARMKVSGPPNPQAFPTLPSDFDFDFRKGKTIGGKPHEPLARTAPSHLTQAADDKPSGSRAFWESPPPPGGRFAATPFDPQSHSLAAEKAGTNAARLAEAGNCKPGPGSYNVEVDPTARRVPASLFGRTLSAKSVSVENGVPGPGHYRVVDDTSGRGTIFYKGDFHPRGCSGQGGSAAESLGVGPGAHYNDDTMYSNSINGDRAHNKGFTMGIRYPARATYQHCAPYDETTNINCVYDDELNWVVRPNQHLPLIRRGKL | not soluble
18 | MSSEERSRQPSTVSTFDLEPNPFEQSFASSKKALSLPGTISHPSLPKELSRNNSTSTITQHSQRSTHSLNSIPEENGNSTVTDNSNHNDVKKDSPSFLPGQQRPTIISPPILTPGGSKRLPPLLLSPSILYQANSTTNPSQNSHSVSVSNSNPSAIGVSSTSGSLYPNSSSPSGTSLIRQPRNSNVTTSNSGNGFPTNDSQMPGFLLNLSKSGLTPNESNIRTGLTPGILTQSYNYPVLPSINKNTITGSKNVNKSVTVNGSIENHPHVNIMHPTVNGTPLTPGLSSLLNLPSTGVLANPVFKSTPTTNTTDGTVNNSISNSNFSPNTSTKAAVKMDNPAEFNAIEHSAHNHKENENLTTQIENNDQFNNKTRKRKRRMSSTSSTSKASRKNSISRKNSAVTTAPAQKDDVENNKISNNVTLDENEEQERKRKEFLERNRVAASKFRKRKKEYIKKIENDLQFYESEYDDLTQVIGKLCGIIPSSSSNSQFNVNVSTPSSSSPPSTSLIALLESSISRSDYSSAMSVLSNMKQLICETNFYRRGGKNPRDDMDGQEDSFNKDTNVVKSENAGYPSVNSRPIILDKKYSLNSGANISKSNTTTNNVGNSAQNIINSCYSVTNPLVINANSDTHDTNKHDVLSTLPHNN | soluble
19 | MSSEKEYVEMLDRLYSKLPEKGRKEGTQSLPNMIILNIGNTTIIRNFAEYCDRIRREDKICMKYLLKELAAPGNVDDKGELVIQGKFSSQVINTLMERFLKAYVECSTCKSLDTILKKEKKSWYIVCLACGAQTPVKPL | soluble
20 | MSSEVEPPQKKKQPWLPDYIVENCLAHISRSYYPKLSLVSSPFALSSYPKSSTKRDIASTTEEYFFHVCLQLPKSPLPTWYTLWIKPDQIEKKKKINTFTGNTRLVQIPSSYHYPFDQVFIFNLYGAMRSSKAMVRPPSYGLVSMF | not soluble
21 | MSSISSSSSNVRMDRRFDWVGPPDNLSKIRKIMLRRVDNESELERQYRLAREELNQWNSDFWAEHNQLFDRQKSDFVERKQQELGRLEHVSANELSEFYRDFLNDRHVAMMAYNKEWYRRNLQLIWPALKVNVVRFFRMARR | not soluble
22 | MSSKEIICQGEELFRLIPQRPPMVMIDRFYGIEENTSWSGLTVTTDNLFCRDGVLQETGIIEHIAQSAAARVGYIYMLRKEPVPLGFIGSVEKMKLFRLPSAGAELYTGITIVQEVFDITLITAEVKENDELLAECRMKIYLKKELEHHHHHH | soluble
